Test results reported in patent publication US20250041437A1, “HUMANIZED MUC1 ANTIBODY AND ANTIBODY DRUG CONJUGATE” (Sun Pharma Advanced Research Company Limited, priority 2023, published 2025).
Numbering of substitutions follows the chain as printed.

T1: recombinant human MUC1-SEA (Homo sapiens, UniProt P15941)
T1 construct: on recombinant human MUC1-SEA on SPR; purchased Acrobiosystems MU1-H52H9
T1 sequence (P15941 1039-1148 limits assumed): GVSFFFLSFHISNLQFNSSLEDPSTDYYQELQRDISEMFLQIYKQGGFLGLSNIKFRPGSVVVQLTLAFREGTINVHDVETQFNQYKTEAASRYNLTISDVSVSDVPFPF

T2: MUC1-X-FL-1116 (R1108A, E1109A, N1113A, D1116A) (Homo sapiens, UniProt P15941, D1116A/E1109A/N1113A/R1108A)
T2 construct: wild-type MUC1-X extracellular domain (MUC1-X-FL-WT); His (implied by Ni-NTA purification; pET30a(+) vector); made in house; host or cells: E. coli (pET30a(+))
T2 sequence (P15941 24-115 isoform P15941-8 limits assumed): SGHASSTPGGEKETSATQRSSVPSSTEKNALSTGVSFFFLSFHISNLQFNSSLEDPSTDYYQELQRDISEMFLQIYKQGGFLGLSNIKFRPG
T2 sequence (P15941 1098-1158 R1108A/E1109A/N1113A/D1116A limits assumed): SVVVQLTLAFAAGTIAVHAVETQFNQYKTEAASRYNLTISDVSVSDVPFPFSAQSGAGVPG

T3: MUC1-X-FL-1118 (R1108A, E1109A, N1113A, E1118A) (Homo sapiens, UniProt P15941, E1109A/E1118A/N1113A/R1108A)
T3 construct: wild-type MUC1-X extracellular domain (MUC1-X-FL-WT); His (implied by Ni-NTA purification; pET30a(+) vector); made in house; host or cells: E. coli (pET30a(+))
T3 sequence (P15941 24-115 isoform P15941-8 limits assumed): T2 sequence (P15941 24-115 isoform P15941-8 limits assumed)
T3 sequence (P15941 1098-1158 R1108A/E1109A/N1113A/E1118A limits assumed): T2 sequence (P15941 1098-1158 R1108A/E1109A/N1113A/D1116A limits assumed) with A19D, E21A

B1: HM3 LM3: variant of SP66; VH HM3 SEQ ID NO: 9, VL LM3 SEQ ID NO: 14 (antibody, V domains shown)
VH: EIQLVQSGAEVKKPGSSVKVSCKVTGHSITRGSSWHWMRQAPGQGLEWIGYIHYGGGTSYNPSLKSRATLTRDTSTNTAYMELSSLRSEDTAFYFCARYSYDITYRWFFDVWGQGTLVTVSS
VL: DIQMTQSPSTLSASVGDRVTITCRASQNIGTSIHWYQQKPGKAPKLLIKYASESISGVPSRFSGSGSGTEFTLTISSLQPDDFATYYCQQNNNWPLTFGQGTKVEVK
B2: HM5 LM2: variant of SP66; VH HM5 SEQ ID NO: 11, VL LM2 SEQ ID NO: 13 (antibody, V domains shown)
VH: B1 VH with A68I, L70I, A79F
VL: B1 VL with Y50R
B3: HM4 LM2: variant of SP66; VH HM4 SEQ ID NO: 10, VL LM2 SEQ ID NO: 13 (antibody, V domains shown)
VH: B1 VH with A79F
VL: B1 VL with Y50R
B4: HM5 LM3: variant of SP66; VH HM5 SEQ ID NO: 11, VL LM3 SEQ ID NO: 14 (antibody, V domains shown)
VH: B1 VH with A68I, L70I, A79F
VL: B1 VL
B5: HM3 LM2: variant of SP66; VH HM3 SEQ ID NO: 9, VL LM2 SEQ ID NO: 13 (antibody, V domains shown)
VH: B1 VH
VL: B1 VL with Y50R
B6: HM2 LM2: variant of SP66; VH HM2 SEQ ID NO: 8, VL LM2 SEQ ID NO: 13 (antibody, V domains shown)
VH: B1 VH with A68I, L70I
VL: B1 VL with Y50R
B7: HM4 LM3: variant of SP66; VH HM4 SEQ ID NO: 10, VL LM3 SEQ ID NO: 14 (antibody, V domains shown)
VH: B1 VH with A79F
VL: B1 VL
B8: HM2 LM3: variant of SP66; VH HM2 SEQ ID NO: 8, VL LM3 SEQ ID NO: 14 (antibody, V domains shown)
VH: B1 VH with A68I, L70I
VL: B1 VL
B9: chi 5F3: chimeric anti-MUC1 SEA antibody of WO 2021/186427; variable regions SEQ ID NOs: 42 and 43; parent of the humanized antibodies (antibody, V domains shown)
VH: MRVLILLCLFTAFPGVLSDVQVQESGPDLVKPSQSLSLTCTVTGHSITRGSSWHWIRQFPGNKLEWMGYIHYGGGTSYNPSLKSRISITRDTSKNQFFLQLNSVTTEDTATFFCARYSYDITYRWFFDVWGAGTTVIVSS
VL: MVSTPQFLVFLLFWIPASRGDILLTQSPAILSVSPGERVSFSCRASQNIGTSIHWYQQRKNGSPRLLIKYASESISGIPSRFSGSGSGTDFTLSINSVESEDMADYYCQQNNNWPLTFGAGTKLELK
notes: chimeric anti-MUC1 SEA antibody of WO 2021/186427; parent of the humanized antibodies

These molecules were tested against T1, recombinant human MUC1-SEA (assay: Binding strength by Surface Plasmon Resonance (SPR)). Conditions: Table 2, variants of humanized anti-MUC1 5F3 mAb.
Experimental: Binding strength assessment using Surface Plasmon Resonance (SPR): MUC1 antigen (Acrobiosystems, Cat: MU1-H52H9) was captured on the anti-His immobilized on CM5 chip at 5 μl/min flow rate for 60 s. Post this concentration range of 0-50 nM of antibody or ADC is passed over MUC1 antigen at a flow rate of 30 μl/min flow rate for 120 s, keeping dissociation time of 1800 s at 25°. The dose response generated is evaluated on BIAevaluation software for the calculation of affinity of antibody to antigen as measured by dissociation constant (KD).

| Molecule | ka [M⁻¹ s⁻¹] |
| --- | --- |
| B1 | 4.47e+07 |
| B2 | 4.8e+06 |
| B3 | 4.08e+06 |
| B4 | 3.97e+06 |
| B5 | 2.65e+06 |
| B6 | 1.77e+06 |
| B7 | 2.88e+06 |
| B8 | 3.14e+06 |
| B9 | 4.39e+06 |

The molecules below were run against T2, MUC1-X-FL-1116 (R1108A, E1109A, N1113A, D1116A) (assay: Epitope mapping ELISA, mutant MUC1-X-FL-1116). Conditions: mutation at position 1116.
Assay type: binding

| Molecule | binding to MUC1 mutant (in words) |
| --- | --- |
| B9 | maintained |

Each molecule was assayed against T3, MUC1-X-FL-1118 (R1108A, E1109A, N1113A, E1118A) (assay: Epitope mapping ELISA, mutant MUC1-X-FL-1118). Conditions: mutation at position 1118.
Assay type: binding

| Molecule | binding to MUC1 mutant (in words) |
| --- | --- |
| B9 | lost |
